Target: Mdb1 (UniProt O14079)
Experiment: biotin-peptide streptavidin pull-down, Coomassie stain
Settings: reference: unphosphorylated H2A peptide; sites S129

binding against the reference: gained
Substance: H2A.1 C-terminal 13 residues, 120-132 (from UniProt P04909) pS129 (γH2A) peptide

From article PMC4013092
